Reference: patent EP1740204B1
Several values for one entry are separate records, joined by “and”; a condition that tells them apart may be missing. Equal values may be shown once.

Key:
[1] = biological target: MPR 300 affinity matrix (Man6P-receptor affinity matrix); test: overnight incubation with MPR 300 affinity matrix; activity in unbound, glucose 6-phosphate and mannose 6-phosphate eluted fractions
[2] = biological target: MPR 300 affinity matrix (Man6P-receptor affinity matrix); test: MPR 300 affinity column
[3] = biological target: MPR 300 affinity matrix (Man6P-receptor affinity matrix); test: MPR 300 affinity matrix binding of enzyme batches

recombinant mouse LAMAN with C-terminal polyhistidine tail, secreted from mannose 6-phosphate receptor deficient mouse embryonic fibroblasts (from UniProt O09159 50-1013) (enzyme)
percent of LAMAN activity bound to the Man6P-receptor affinity matrix [1]: 73.6%

recombinant human lysosomal alpha-mannosidase (LAMAN) expressed in CHO cells (enzyme)
percent bound to the MRP 300 column [2]: < 40%
% phosphorylation (fraction of enzyme binding the Man6P-receptor affinity matrix) [3]: 40% and 30% and 42%
percent of the amount of enzyme binding to the affinity matrix [3]: 40%
percent of LAMAN bound to the Man6P-receptor affinity matrix in a Man6P-dependent manner [1]: 4.2%

bovine LAMAN purified from kidney (from UniProt Q29451 51-999) (enzyme)
percent of LAMAN activity bound to the Man6P-receptor affinity matrix in a Man6P-dependent manner [1]: 6.4%
